Measured values: US6570002 (Johns Hopkins, dated 2003)

Molecular target: T1, Aven (human, UniProt Q9NQS1 1-362)
T1 construct: also called Bif-1
T1 sequence: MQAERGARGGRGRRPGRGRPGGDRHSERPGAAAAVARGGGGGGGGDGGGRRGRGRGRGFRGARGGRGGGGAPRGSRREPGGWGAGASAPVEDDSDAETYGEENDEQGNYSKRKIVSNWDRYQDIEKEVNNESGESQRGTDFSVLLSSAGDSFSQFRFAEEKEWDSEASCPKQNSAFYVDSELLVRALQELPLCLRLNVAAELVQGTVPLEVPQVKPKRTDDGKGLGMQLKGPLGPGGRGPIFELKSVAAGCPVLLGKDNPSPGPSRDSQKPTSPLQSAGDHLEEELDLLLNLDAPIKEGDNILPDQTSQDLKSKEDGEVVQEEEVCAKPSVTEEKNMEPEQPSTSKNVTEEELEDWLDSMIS
Experiment: yeast two-hybrid / co-immunoprecipitation (FIG. 6)

binding result: no binding
B1: Bak (other, UniProt Q16611 1-211, looked up)
chain: MASGQGPGPPRQECGEPALPSASEEQVAQDTEEVFRSYVFYRHQQEQEAEGVAAPADPEMVTLPLQPSSTMGQVGRQLAIIGDDINRRYDSEFQTMLQHLQPTAENAYEYFTKIATSLFESGINWGRVVALLGFGYRLALHVYQHGLTGFLGQVTRFVVDFMLHHCIARWIAQRGGWVAALNLGNGPILNVLVVLGVVLLGQFVVRRFFKS
